Drawing on PMC11570498, this text covers Kd, K0.5 (half-occupancy) and percent of the CsRbcL sites occupied for two substances.

For assay [1], the target named is Chlamydomonas reinhardtii Rubisco (CrRubisco) (Chlamydomonas reinhardtii (endogenous in Chlamydomonas cells)) (UniProt P00877). As to the kind of experiment: SPR; Rubisco immobilised as bait, fragments as analyte (prey); Biacore T100/T200, 25 °C; analyte injected at 15 μl/min for 30 s, 360 s dissociation; fit of y = Bmax·x/(KD + x); apparent KD; triplicate.
Chlamydomonas reinhardtii Rubisco (CrRubisco) (Chlamydomonas reinhardtii (endogenous in Chlamydomonas cells)), sequence (P08475 46-185 limits assumed, chain 2 of 2, other chains not shown): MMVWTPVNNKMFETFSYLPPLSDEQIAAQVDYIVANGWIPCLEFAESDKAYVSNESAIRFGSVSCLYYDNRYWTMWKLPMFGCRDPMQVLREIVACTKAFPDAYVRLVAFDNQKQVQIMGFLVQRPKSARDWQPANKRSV
Assay [2] deals with Chlorella sorokiniana Rubisco holoenzyme (CsRubisco) (Chlorella sorokiniana UTEX1230 (endogenous in Chlorella cells)) (UniProt W8SUA8). Described as above.
For assay [3] the target is unchanged. As to the kind of experiment: native gel or EMSA; native PAGE gel-shift assay; Rubisco and fragments mixed for 30 min at room temperature; 50 mM Tris-HCl pH 8.0, 50 mM NaCl (Fig. 3a); 4-20% gels, 4 h at 100 V, 4 °C. (In general: In EMSA bound probe runs differently from free probe, usually more slowly.)
For assay [4] the target is unchanged. Nature of the assay: cryo-EM structure; 0.5 μM CsRubisco and 16 μM α3–α4 in 200 mM sorbitol, 50 mM HEPES, 50 mM KOAc, 2 mM Mg(OAc)2, 1 mM CaCl2, pH 6.8; D4 map of the holoenzyme and C1 map after symmetry expansion.

As for “CsLinker α3 fragment (residues 142–207) (domain or fragment)”, the Kd in assay [1] was 108 µM; in assay [2], 103 µM.
For the substance “CsLinker α3–α4 fragment (residues 142–272) (domain or fragment)”, the K0.5 (half-occupancy) in assay [3] amounted to 1.2 µM. Besides, the Kd in assay [1] came out at 1.3 µM; in assay [2], 1.21 µM. Further, in assay [4], the percent of the CsRbcL sites occupied worked out at 23%.
